Measurements published in article PMC5674874 (The Journal of Cell Biology, 2017).

Key:
[1] = target: T1, Stu2-2D-Flag (S. cerevisiae, UniProt P46675 1-888, S813D | S815D); assay: SEC
T1 sequence (looked up): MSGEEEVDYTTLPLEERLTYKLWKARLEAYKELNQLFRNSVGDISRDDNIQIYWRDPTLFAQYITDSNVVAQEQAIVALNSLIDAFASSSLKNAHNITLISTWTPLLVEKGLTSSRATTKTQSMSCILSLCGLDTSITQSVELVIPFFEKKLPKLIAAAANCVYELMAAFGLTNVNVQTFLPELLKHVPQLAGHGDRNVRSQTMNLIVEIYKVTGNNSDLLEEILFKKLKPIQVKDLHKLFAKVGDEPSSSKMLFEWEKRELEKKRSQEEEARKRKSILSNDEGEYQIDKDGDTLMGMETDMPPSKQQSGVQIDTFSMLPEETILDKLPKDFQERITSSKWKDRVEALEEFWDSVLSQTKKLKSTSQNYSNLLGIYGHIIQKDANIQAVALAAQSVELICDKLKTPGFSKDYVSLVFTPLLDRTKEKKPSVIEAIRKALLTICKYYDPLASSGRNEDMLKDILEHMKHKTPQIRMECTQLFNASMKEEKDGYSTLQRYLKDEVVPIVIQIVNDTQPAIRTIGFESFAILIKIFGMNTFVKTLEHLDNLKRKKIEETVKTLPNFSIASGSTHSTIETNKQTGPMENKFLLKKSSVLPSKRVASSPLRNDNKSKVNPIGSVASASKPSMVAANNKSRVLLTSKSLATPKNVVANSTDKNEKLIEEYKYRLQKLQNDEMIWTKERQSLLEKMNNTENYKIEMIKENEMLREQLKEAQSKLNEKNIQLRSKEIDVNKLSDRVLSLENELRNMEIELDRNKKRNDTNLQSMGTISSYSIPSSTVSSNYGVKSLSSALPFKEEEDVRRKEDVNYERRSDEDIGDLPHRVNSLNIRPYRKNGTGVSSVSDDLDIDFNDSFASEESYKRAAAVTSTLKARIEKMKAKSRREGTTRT

[2] = target: T2, Stu2-WT-Flag (S. cerevisiae, UniProt P46675 1-888); assay: SEC
T2 sequence (looked up): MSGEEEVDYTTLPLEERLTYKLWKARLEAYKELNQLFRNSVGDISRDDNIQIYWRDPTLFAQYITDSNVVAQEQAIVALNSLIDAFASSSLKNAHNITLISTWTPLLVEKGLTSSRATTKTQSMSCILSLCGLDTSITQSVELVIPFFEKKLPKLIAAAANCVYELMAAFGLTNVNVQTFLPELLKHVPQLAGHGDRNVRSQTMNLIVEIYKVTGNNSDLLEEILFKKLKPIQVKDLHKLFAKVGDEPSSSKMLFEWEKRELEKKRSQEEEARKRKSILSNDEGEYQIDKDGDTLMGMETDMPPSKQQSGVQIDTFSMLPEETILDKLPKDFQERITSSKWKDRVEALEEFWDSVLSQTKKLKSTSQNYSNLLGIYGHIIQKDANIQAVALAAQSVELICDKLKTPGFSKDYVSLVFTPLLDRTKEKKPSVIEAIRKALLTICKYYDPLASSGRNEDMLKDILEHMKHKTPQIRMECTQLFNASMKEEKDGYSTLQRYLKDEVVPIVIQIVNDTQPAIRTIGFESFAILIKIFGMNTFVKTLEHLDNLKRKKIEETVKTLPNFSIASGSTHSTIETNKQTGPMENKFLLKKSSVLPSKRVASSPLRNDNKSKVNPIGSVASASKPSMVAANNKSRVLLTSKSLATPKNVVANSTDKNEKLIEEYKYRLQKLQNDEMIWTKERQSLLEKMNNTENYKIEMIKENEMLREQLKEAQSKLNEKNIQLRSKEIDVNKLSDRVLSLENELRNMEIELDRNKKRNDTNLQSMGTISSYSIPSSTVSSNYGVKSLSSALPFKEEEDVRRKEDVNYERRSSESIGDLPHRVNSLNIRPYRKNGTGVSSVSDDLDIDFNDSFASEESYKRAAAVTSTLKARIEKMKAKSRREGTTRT

binding result [1]: binds
binding result [2]: binds
B1: Bik1 (recombinant, from StrepII-TEV-Bik1) (natural protein, S. cerevisiae, UniProt P11709 1-440, looked up)
chain: MDRYQRKIGCFIQIPNLGRGQLKYVGPVDTKAGMFAGVDLLANIGKNDGSFMGKKYFQTEYPQSGLFIQLQKVASLIEKASISQTSRRTTMEPLSIPKNRSIVRLTNQFSPMDDPKSPTPMRSFRITSRHSGNQQSMDQEASDHHQQQEFGYDNREDRMEVDSILSSDRKANHNTTSDWKPDNGHMNDLNSSEVTIELREAQLTIEKLQRKQLHYKRLLDDQRMVLEEVQPTFDRYEATIQEREKEIDHLKQQLELERRQQAKQKQFFDAENEQLLAVVSQLHEEIKENEERNLSHNQPTGANEDVELLKKQLEQLRNIEDQFELHKTKWAKEREQLKMHNDSLSKEYQNLSKELFLTKPQDSSSEEVASLTKKLEEANEKIKQLEQAQAQTAVESLPIFDPPAPVDTTAGRQQWCEHCDTMGHNTAECPHHNPDNQQFF
